Changes are numbered by the printed parent chain. Each block holds one binder with its values, some of them ahead of it.
Assays:
[1] = target: T1, TROP2 on TROP2-positive NCI-H1975 cells (human, UniProt P09758 27-323); experiment: cell-based or functional assay
T1 sequence: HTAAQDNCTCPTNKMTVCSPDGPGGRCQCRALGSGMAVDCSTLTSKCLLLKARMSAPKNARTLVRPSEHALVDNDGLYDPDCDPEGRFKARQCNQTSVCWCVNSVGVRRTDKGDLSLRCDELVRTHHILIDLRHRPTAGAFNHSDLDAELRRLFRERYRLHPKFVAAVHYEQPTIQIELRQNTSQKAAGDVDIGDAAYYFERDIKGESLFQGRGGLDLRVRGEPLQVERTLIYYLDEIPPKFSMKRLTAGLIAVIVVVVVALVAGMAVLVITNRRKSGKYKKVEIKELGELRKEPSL

[2] = target: T2, Human TROP2 Protein, His Tag (Acro Biosystems) (human, UniProt P09758 27-274); experiment: BLI (Octet)
T2 construct: not shown: His tag
T2 sequence (looked up): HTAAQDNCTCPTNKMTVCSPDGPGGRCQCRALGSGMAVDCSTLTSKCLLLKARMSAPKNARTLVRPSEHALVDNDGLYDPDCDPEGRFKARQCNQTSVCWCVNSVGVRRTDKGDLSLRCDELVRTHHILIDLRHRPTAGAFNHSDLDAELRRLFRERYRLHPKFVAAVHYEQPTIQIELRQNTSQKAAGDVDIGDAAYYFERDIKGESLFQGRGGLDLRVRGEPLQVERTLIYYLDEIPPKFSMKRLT

[3] = target: T3, Human TROP2 Protein, His Tag (human, UniProt P09758 27-274); experiment: BLI (Octet) [1/2]
T3 construct: Bought protein; also called TACSTD2; not shown: His tag
T3 sequence (looked up): T2 sequence (looked up)
In short: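 Antibody variants from day-4 expression supernatants, diluted in 1×PBST pH 7.4 by expression level, captured on anti-human Fc tips. Association with 50 nM human TROP2-His in PBST pH 7.4 for 120 sec; dissociation in PBST pH 7.4 or pH 5.4 for 300 sec. Curves examined for koff at each pH versus parent antibody.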

[4] = target: T2, Human TROP2 Protein, His Tag (Acro …); experiment: BLI (Octet); remark: listed apart in the source
[5] = target: T4, Human TROP2 Protein, His Tag (Acro Biosystems) (human, UniProt P09758 27-274); experiment: BLI (Octet) [2/2]
T4 construct: also called TACSTD2; not shown: His tag
T4 sequence (looked up): T2 sequence (looked up)

[6] = target: T5, Human TROP2 Protein, His Tag (Acro Biosystems) (human, UniProt P09758 27-274); experiment: BLI (Octet), IgG on anti-human Fc sensor, soluble TROP2; grade 2 = No change vs parent
T5 construct: Soluble analyte of the Octet assay; also called TACSTD2; not shown: His tag
T5 sequence (looked up): T2 sequence (looked up)
Method: After allowing for four days of protein expression, cell culture supernatants were collected, quantified by SDS-PAGE analysis (DNS), and the pH dependence of the variant was evaluated using biolayer interferometry (BLI) on an Octet RED 96e instrument. Briefly, cell culture supernatants were diluted based on qualitative expression level of the variant determined by visual examination of SDS-PAGE gels, 5 μL of cell culture supernatant was diluted into 195 μL of 1×PBST, pH 7.4 for high expressors, 25 μL of cell culture supernatant was diluted into 175 μL of 1×PBST, pH 7.4 for medium expressors and 100 μL of cell culture supernatant was diluted into 100 μL of 1×PBST, pH 7.4 for low expressors for loading onto the sensor tips. The resulting diluted supernatants were then captured on an anti-human Fc sensor (Forte Bio). A baseline was established using 1×PBST (50 mM Potassium Phosphate Buffer+150 mM NaCl+0.05% Tween 20) pH 7.4, and the sensor was associated with 50 nM of TROP2 (Human TROP2 Protein, His Tag, Acro Biosystems) in 1×PBST pH 7.4 for 120 sec to generate an association curve. In the dissociation phase, the antibody-antigen complex on the sensor was exposed to 1×PBST pH 7.4 or pH 5.4, for 300 sec. Association and dissociation phase curves were examined for the starting ABPC antibody (with no substitutions) and each corresponding antibody variant at pH 5.4 and pH 7.4 to inform on two criteria: a) enhanced dissociation (i.e., higher koff values) at pH 5.4 due to histidine or alanine substitution compared to the starting ABPC, (with no substitutions), and b) reduced dissociation at pH 7.4 (i.e., lower koff values) compared to pH 5.4 in the antibody variant itself and with the starting ABPC (with no substitutions). […] It was also noted that while some mutations obliterated TROP2 binding, others were tolerated with little or n change in TROP2 binding kinetics.

[7] = target: T6, Human TROP2 Protein, His Tag (Acro Biosystems) (human, UniProt P09758 27-274); experiment: BLI (Octet); remark: listed apart in the source
T6 construct: not shown: His tag
T6 sequence (looked up): T2 sequence (looked up)

B1: 112-DXd (antibody, IgG1, V domains shown)
VH: QVQLVQSGAEVKKPGASVKVSCKASGYTFTTAGMQWVRQAPGQGLEWMGWINTHSGVPKYAEDFKGRVTISADTSTSTAYLQLSSLKSEDTAVYYCARSGFGSSYWYFDVWGQGTLVTVSS
VL: DIQMTQSPSSLSASVGDRVTITCKASQDVSTAVAWYQQKPGKAPKLLIYSASYRYTGVPSRFSGSGSGTDFTLTISSLQPEDFAVYYCQQHYITPLTFGQGTKLEIK
modifications: maleimide based GGFG-DXd conjugated to hinge cysteines, average DAR of about 4
% efficiency @ 100 nM ADC (cytotoxicity in NCI-H1975 cells) [1]: -1.22%

B2: MYT12406 (antibody, V domains shown)
VH: B1 VH
VL: B1 VL with A51H, Q89H, Y92H
notes: datopotamab VL 51, 89, 92 substituted
binding result [2]: no binding (tested: 50 nM)

B4: MYT11679 (antibody, V domains shown)
VH: B1 VH
VL: B1 VL with S26H
notes: IgG from supernatant; His at LCV position 26; also called datopotamab variant L1 03
binding result [3]: binds

B5: MYT12393 (antibody, V domains shown)
VH: B1 VH
VL: B1 VL with A51H, Q89H
notes: datopotamab VL 51, 89 substituted
binding result [4]: binds

B6: MYT13252 (antibody, V domains shown)
VH: QVQLQQSGSELKKPGASVKVSCKASGYTFTNYGMNWVKQAPGQGLKWMGWINTYTGEPTYTDHFKGRFAFSLDTSVSTAYLQISSLKADDTAVYFCARGGFGSSYWYFDVWGQGSLVTVSS
VL: B1 VL with M4L, T20S, T31I, S52H, S60D, I93H, Q100A, L104V
notes: Sacituzumab HC-LC pairing variant
binding result [5]: binds

B8: MYT12398 (antibody, V domains shown)
VH: B1 VH
VL: B1 VL with D28H, A51H, S52H
notes: datopotamab VL 28, 51, 52 substituted
binding result [4]: binds

B9: MYT11680 (antibody, V domains shown)
VH: B1 VH
VL: B1 VL with Q27H
notes: IgG from supernatant; His at LCV position 27; also called datopotamab variant L1 04
binding result [3]: binds

B10: MYT13198 (antibody, V domains shown)
VH: B6 VH with H63D, K65H
VL: B1 VL with M4L, T20S, T31I, Y53H, S60D, Q100A, L104V
notes: Sacituzumab HC-LC pairing variant; IgG
binding result [6]: binds

B11: MYT11678 (antibody, V domains shown)
VH: B1 VH
VL: B1 VL with A25H
notes: IgG from supernatant; His at LCV position 25; also called datopotamab variant L1 02
binding result [3]: binds

B12: MYT13203 (antibody, V domains shown)
VH: B6 VH with D62H, H63D
VL: B1 VL with M4L, T20S, T31I, S60D, Q89H, Q100A, L104V
notes: as for B10
binding result [6]: binds

B16: MYT12405 (antibody, V domains shown)
VH: B1 VH
VL: B1 VL with A51H, S52H, Y92H
notes: datopotamab VL 51, 52, 92 substituted
binding result [2]: no binding (tested: 50 nM)

B17: MYT13254 (antibody, V domains shown)
VH: B6 VH with H63D, K65H
VL: B1 VL with M4L, T20S, T31I, S52H, S60D, I93H, Q100A, L104V
notes: as for B6
binding result [5]: binds

B19: 170-DXd (antibody, IgG1, V domains shown)
VH: QVQLQESGPGLVKPSETLSLTCTVSGGSISSYGVHWIRQPPGKGLEWIGVIWTSGVTDYNSALMGRVTISVDTSKNQFSLKLSSVTAADTAVYYCARDGDYDRYTMDYWGQGTLVTVSS
VL: DIVMTQSPDSLAVSLGERATINCRASKSVSTSGYSYMHWYQQKPGQPPKLLIYLASNLHSGVPDRFSGSGSGTDFTLTISSLQAEDVAVYYCHHSRHLPYTFGQGTKLEIK
modifications: maleimide based GGFG-DXd conjugated to hinge cysteines, average DAR of about 4
% efficiency @ 100 nM ADC (cytotoxicity in NCI-H1975 cells) [1]: 5.39%

B20: 169-DXd (antibody, IgG1, V domains shown)
VH: B19 VH
VL: B19 VL with H59E, H93Q, H97E
modifications: maleimide based GGFG-DXd conjugated to hinge cysteines, average DAR of about 4
% efficiency @ 100 nM ADC (cytotoxicity in NCI-H1975 cells) [1]: -3.5%

Results, then the binder that gave them:

binding result [2]: no binding (tested: 50 nM)
B3: MYT12407 (antibody, V domains shown)
VH: B1 VH
VL: B1 VL with S52H, Q89H, Y92H
notes: datopotamab VL 52, 89, 92 substituted

binding result [6]: binds
B7: MYT13199 (antibody, V domains shown)
VH: B6 VH with H63D, G66H
VL: B1 VL with M4L, T20S, T31I, Y53H, S60D, Q100A, L104V
notes: as for B10

binding result [4]: binds
B13: MYT12404 (antibody, V domains shown)
VH: B1 VH
VL: B1 VL with A51H, S52H, Q89H
notes: datopotamab VL 51, 52, 89 substituted

binding result [5]: binds
B14: MYT13253 (antibody, V domains shown)
VH: B6 VH with H63D, F64H
VL: B1 VL with M4L, T20S, T31I, S52H, S60D, I93H, Q100A, L104V
notes: as for B6

binding result [6]: binds
B15: MYT13187 (antibody, V domains shown)
VH: B6 VH with D62H, H63D
VL: B1 VL with M4L, T20S, T31I, S52H, S60D, Q100A, L104V
notes: as for B10

binding result [5]: binds
B18: MYT13255 (antibody, V domains shown)
VH: B6 VH with H63D, G66H
VL: B1 VL with M4L, T20S, T31I, S52H, S60D, I93H, Q100A, L104V
notes: as for B6

binding result [7]: no binding (tested: 50 nM)
B21: MYT13310 (antibody, V domains shown)
VH: B19 VH with M106H
VL: B19 VL with H93Q, H94A, H97E
notes: Full-length IgG from Expi293 supernatant; also called hu7E6SVG heavy chain and light chain pairing variant

binding result [7]: no binding (tested: 50 nM)
B22: MYT13315 (antibody, V domains shown)
VH: B19 VH with M106H
VL: B19 VL with H93Q, H97E, T101H
notes: as for B21

binding result [7]: no binding (tested: 50 nM)
B23: MYT13305 (antibody, V domains shown)
VH: B19 VH with M106H
VL: B19 VL with H59E, H93Q, H97E, T101H
notes: as for B21

binding result [7]: no binding (tested: 50 nM)
B24: MYT13295 (antibody, V domains shown)
VH: B19 VH with M106H
VL: B19 VL with H59E, H93Q, H94A, H97E
notes: as for B21
